# Measurements reported in IntAct's records for PubMed 20956287.
# B1: SH2 domain-containing protein 3C (Mus musculus), Q9QZS8-1 (parent)
# chain: MTEMPKKTGRKFKFFKFKGLGSLSNLPRSFSLRRSSASASIRSCPEPDTFEATQDDMVTLPKSPPAYARSSDMYSHMGTMPRPNIKKAQKQQAVQKAQEVSRESHLVSRRLPEPPDLEAAKEAGEGTEALLEDTAPSAVEVDPMRELEDLTVDTEKEQVPGDVSPERTAAELEAAGDYVKFSKEKYILDSSPEKLHKELEEELKLSSTDLRSHAWYHGRIPREVSETLVQRNGDFLIRDSLTSLGDYVLTCRWHNQALHFKINKVVVKAGESYTHIRYLFEQESFDHVPALVRYHVGSRKAVSEQSGAIIYCPVNRTFPLRYLEASYGLSQGSSKTASPASPSGSKGSHMKRRSITMTDGLTTDKVTRSDGCPNSTSLPHPRDSIRNCALSMDQIPDLHSPLSPISESPSSPAYSTVTRVHAPSATPSTSAQPASPVARRSSEPQLCPGNTPKPPGESDRAPHASPSHTLCKASPSPSLSSYSDPDSGHYCQLQPPVRGSREQAAGETPRKARGSGERQKELLENGVSDGEWGKTFTVPVVEATSSFNLATFQSQLIPKENRPLEVALLRKVKELLSEVDARTLARHVTKVDCLVARILGVTKEMQTLMGVRWGMELLTLPHGRQLRLDLLERFHTMSIMLAVDILGCTGSAEERAALLHKTIQLAAELRGTMGNMFSFAAVMGALEMAQISRLEQTWMTLRQRHTEGAILYEKKLKPFLKSLNEGKEGPPLSNTTFPHVLPFITLLECDSAPAEGPEPWGSTEHGVEVVLAHLEAARTVAHHGGLYHTNAEVKLQGFQARPELLEVFSTEFQMRLLWGSQGANSSQAWRYEKFDKVLTALSHKLEPAIRSSEL
# partner: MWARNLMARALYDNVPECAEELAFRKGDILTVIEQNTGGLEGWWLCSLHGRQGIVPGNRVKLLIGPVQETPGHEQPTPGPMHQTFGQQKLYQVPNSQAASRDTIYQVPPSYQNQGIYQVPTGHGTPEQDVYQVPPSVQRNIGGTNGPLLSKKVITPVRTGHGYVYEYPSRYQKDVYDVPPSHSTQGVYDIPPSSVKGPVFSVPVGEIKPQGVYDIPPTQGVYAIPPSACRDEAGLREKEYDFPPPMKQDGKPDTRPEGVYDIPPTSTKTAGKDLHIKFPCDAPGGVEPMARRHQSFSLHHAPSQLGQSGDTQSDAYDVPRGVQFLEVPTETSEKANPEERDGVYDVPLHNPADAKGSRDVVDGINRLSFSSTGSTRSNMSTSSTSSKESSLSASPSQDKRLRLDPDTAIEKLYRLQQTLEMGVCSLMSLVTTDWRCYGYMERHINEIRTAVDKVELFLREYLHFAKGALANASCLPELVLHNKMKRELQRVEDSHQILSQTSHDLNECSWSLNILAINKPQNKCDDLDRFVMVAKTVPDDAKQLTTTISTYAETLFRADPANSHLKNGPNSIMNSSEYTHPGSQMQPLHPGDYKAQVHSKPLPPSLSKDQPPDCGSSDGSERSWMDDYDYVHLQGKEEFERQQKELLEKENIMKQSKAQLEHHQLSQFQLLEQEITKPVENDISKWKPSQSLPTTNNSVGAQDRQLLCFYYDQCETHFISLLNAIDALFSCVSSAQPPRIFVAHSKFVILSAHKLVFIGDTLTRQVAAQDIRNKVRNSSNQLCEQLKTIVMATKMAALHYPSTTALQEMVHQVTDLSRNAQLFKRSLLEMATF
# Variants of: B1
# Details: with casl_mouse Nedd9, O35177
row,Variant,effect of a mutation on the interaction
1,Y787E,disrupting interaction
